# In patent US20060121042A1 (AstraZeneca / MedImmune, published 2006):
# T1: rmEph B2 (mouse, UniProt P54763)
# T1 sequence (receptor, looked up): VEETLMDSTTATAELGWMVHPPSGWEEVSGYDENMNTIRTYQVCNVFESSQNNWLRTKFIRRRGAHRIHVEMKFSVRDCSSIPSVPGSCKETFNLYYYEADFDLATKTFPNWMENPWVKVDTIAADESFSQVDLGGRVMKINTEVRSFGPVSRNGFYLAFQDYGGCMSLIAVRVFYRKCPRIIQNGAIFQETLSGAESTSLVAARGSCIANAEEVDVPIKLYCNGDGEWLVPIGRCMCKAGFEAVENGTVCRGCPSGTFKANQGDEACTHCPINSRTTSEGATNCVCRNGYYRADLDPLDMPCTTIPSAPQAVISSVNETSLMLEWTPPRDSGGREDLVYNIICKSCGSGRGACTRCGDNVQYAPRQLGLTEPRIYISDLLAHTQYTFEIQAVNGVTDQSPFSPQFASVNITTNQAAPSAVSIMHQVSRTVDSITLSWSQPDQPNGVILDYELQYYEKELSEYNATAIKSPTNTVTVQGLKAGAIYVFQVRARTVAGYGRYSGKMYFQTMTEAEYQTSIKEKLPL
# T2: rmEph B3 (mouse, UniProt P54754)
# T2 sequence (receptor, looked up): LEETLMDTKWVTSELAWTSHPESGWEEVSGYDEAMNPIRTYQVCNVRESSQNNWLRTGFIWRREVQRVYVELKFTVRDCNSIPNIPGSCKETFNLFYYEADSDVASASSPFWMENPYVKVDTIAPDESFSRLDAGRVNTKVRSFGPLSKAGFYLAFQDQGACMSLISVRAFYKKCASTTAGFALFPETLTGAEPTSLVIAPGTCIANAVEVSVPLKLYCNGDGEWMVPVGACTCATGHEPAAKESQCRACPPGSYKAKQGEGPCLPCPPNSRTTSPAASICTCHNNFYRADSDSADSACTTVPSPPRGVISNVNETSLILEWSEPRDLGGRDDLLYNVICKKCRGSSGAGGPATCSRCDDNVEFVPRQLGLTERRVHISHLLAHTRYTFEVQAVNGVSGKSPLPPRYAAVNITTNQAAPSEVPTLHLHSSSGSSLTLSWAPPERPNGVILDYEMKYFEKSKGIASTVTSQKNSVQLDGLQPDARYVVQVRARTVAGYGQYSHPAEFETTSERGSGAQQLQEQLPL
# T3: rrEphB1 (rat, UniProt P09759)
# T3 sequence (receptor, looked up): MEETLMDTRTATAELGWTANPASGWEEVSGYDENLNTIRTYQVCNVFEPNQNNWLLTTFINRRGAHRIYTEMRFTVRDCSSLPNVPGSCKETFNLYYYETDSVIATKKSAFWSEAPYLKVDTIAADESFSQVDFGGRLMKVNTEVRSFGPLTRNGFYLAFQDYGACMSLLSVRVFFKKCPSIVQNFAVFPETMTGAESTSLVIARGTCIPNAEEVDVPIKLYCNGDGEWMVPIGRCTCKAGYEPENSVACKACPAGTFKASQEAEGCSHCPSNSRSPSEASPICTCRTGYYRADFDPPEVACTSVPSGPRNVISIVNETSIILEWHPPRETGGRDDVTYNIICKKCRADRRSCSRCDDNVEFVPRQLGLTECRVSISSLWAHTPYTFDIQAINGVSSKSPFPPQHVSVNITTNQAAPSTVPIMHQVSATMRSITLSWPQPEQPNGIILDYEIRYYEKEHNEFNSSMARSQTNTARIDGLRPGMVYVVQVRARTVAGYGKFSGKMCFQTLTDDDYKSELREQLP
# T4: mEphA7 (mouse, UniProt Q61772)
# T4 construct: part of an Fc fusion; also called rmuEphA7-Fc
# T4 sequence (receptor-Fc fusion, looked up): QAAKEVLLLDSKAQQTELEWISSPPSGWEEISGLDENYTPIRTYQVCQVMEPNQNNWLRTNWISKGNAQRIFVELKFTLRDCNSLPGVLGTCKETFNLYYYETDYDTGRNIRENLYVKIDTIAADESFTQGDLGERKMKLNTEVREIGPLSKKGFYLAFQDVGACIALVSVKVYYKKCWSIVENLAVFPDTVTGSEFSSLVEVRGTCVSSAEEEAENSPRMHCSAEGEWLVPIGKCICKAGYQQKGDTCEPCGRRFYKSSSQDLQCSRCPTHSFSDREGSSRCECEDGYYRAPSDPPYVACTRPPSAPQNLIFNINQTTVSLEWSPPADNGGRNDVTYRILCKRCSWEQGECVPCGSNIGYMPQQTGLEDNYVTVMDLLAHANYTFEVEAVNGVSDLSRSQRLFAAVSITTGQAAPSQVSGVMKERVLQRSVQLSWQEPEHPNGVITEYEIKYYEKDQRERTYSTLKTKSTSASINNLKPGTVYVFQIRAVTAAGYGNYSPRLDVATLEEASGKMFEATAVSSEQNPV
# T5: mEphA3 (mouse, UniProt P29319)
# T5 construct: part of an Fc fusion; also called rmuEphA3-Fc
# T5 sequence (receptor-Fc fusion, looked up): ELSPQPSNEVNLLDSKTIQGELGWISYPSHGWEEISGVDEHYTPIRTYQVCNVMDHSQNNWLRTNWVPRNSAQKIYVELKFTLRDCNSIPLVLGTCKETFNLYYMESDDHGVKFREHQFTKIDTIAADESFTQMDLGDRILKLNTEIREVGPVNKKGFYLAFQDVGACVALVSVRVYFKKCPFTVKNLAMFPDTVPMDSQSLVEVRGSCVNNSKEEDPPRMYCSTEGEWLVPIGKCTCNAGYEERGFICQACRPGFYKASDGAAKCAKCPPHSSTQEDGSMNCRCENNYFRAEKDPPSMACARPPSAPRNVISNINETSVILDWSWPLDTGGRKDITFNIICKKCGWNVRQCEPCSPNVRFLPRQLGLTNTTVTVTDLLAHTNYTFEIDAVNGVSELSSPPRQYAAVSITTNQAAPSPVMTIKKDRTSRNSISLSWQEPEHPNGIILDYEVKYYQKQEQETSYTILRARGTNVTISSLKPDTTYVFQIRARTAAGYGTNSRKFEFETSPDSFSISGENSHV
# T6: r murine EphA7 (mouse, UniProt Q61772)
# T6 construct: recombinant Fc fusion (R&D Systems); also called rmuEphA7-Fc; mEphA7
# T6 sequence (receptor-Fc fusion, looked up): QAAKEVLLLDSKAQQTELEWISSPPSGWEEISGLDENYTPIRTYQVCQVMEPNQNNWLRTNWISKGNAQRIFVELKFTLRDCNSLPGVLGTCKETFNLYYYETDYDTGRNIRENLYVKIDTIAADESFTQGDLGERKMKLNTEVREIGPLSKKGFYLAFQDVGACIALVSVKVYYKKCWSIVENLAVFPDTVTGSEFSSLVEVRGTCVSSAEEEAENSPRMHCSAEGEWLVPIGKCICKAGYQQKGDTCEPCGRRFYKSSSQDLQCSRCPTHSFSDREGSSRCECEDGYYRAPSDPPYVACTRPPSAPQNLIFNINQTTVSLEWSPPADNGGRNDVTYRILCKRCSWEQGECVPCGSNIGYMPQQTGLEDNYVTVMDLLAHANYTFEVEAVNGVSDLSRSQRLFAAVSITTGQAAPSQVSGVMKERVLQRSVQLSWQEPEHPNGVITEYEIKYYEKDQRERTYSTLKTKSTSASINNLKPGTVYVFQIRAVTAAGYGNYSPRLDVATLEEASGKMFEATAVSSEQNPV
# T7: r murine EphA3 (mouse, UniProt P29319)
# T7 construct: recombinant Fc fusion (R&D Systems); also called rmuEphA3-Fc; mEphA3
# T7 sequence (receptor-Fc fusion, looked up): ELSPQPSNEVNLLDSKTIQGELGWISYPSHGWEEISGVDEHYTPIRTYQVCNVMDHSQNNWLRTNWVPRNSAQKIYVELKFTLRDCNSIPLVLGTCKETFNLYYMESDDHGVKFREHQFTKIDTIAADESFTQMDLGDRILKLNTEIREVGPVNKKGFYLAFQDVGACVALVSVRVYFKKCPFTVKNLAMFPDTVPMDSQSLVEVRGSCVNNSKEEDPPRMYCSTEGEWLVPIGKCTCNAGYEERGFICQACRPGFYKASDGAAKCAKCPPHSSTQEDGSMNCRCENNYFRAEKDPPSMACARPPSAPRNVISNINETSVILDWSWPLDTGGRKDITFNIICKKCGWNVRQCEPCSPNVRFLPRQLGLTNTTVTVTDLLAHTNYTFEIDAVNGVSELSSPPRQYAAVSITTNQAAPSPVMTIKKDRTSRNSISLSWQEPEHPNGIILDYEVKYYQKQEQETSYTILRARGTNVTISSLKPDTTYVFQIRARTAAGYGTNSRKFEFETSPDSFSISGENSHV
# Legend:
# [1] = target: T1, rmEph B2; assay: ELISA
# [2] = target: T2, rmEph B3; assay: ELISA
# [3] = target: T3, rrEphB1; assay: ELISA
# [4] = target: mEph A2 (mouse, UniProt Q03145); assay: ELISA
# [5] = target: T8, hEphA2 (human, UniProt P29317); assay: ELISA
# T8 construct: also called human EphA2
# [6] = target: T4, mEphA7; assay: ELISA, receptor coated on the plate, purified IgG, anti-human kappa-HRP
# Protocol: (§1) Secondary screening of IgG constructs of affinity optimized combinatorial variants with additional EphA receptors: With purified IgG constructs of the nine combinatorial variants, additional secondary screening assays were performed using the Activity ELISA (see above) and recombinant EphA receptor proteins. More precisely, Nunc Maxisorp plates were coated with the following rEphA proteins: rhuEphAl-Fc; 0.5 μg/well, rmuEphA2-Fc; 0.5 μg/well, rmuEphA3-Fc: 0.1 μg/well, rmuEphA4-Fc; 0.1 μg/well, rratEphA5-Fc; 0.5 μg/well, rmuEphA6-Fc; 0.5 μg/well, rmuEphA7-Fc; 0.1 μg/well, rEphA8; 0.2 μg/well (all R&D Systems), rhuEphA2-Fc; 0.5 μg/well, and rhuEphA4-His; 0.1 μg/well (both produced at MedImmune, Inc.). Plates were blocked with 3% BSA+0.1% Tween20 for 2 h. […] Incubation with a goat anti-human kappa horseradish peroxydase (HRP) conjugate then followed. HRP activity was detected with TMB substrate and the reaction quenched with 0.2 M H₂SO₄. Plates were read at 450 nm. Data was analyzed by normalizing Fab concentrations to the corresponding activity data (see FIGS. 12A-12J and 14).
# [7] = target: T5, mEphA3; assay: as above
# Protocol: as §1
# [8] = target: T9, mEphA4 (mouse, UniProt Q03137); assay: as above
# T9 construct: part of an Fc fusion; also called rmuEphA4-Fc
# Protocol: as §1
# [9] = target: T10, Human EphA4-His fusion protein (human, UniProt P54764 20-547); assay: BIAcore, IgG immobilized on the sensor chip, EphA4-his as analyte
# T10 construct: also called rhuEphA4-His; not shown: Histidine tag
# Protocol: (§2) FIG. 15A-15B. […] Binding affinities were measured using the BIAcore assay. […] Variant kinetic measurements for human EphA4 and were obtained using BIAcore with immobilized variant antibodies and human EphA4-Fc and EphA4-His as analytes.
# [10] = target: T11, Human EphA4-Fc fusion protein (human, UniProt P54764 20-547); assay: BIAcore, IgG immobilized on the sensor chip, EphA4-Fc as analyte; koff and KD printed as ***, comment: off-rate below LOD
# T11 construct: not shown: Fc portion of a human IgG1
# Protocol: as §2
# [11] = target: T6, r murine EphA7; assay: activity ELISA, IgG on coated antigen
# Protocol: as §1
# [12] = target: T7, r murine EphA3; assay: activity ELISA, IgG on coated antigen
# Protocol: as §1
# [13] = target: T12, r murine EphA4 (mouse, UniProt Q03137); assay: activity ELISA, IgG on coated antigen
# T12 construct: recombinant Fc fusion (R&D Systems); also called rmuEphA4-Fc; mEphA4
# Protocol: as §1
# T10 sequence (P54764 20-547): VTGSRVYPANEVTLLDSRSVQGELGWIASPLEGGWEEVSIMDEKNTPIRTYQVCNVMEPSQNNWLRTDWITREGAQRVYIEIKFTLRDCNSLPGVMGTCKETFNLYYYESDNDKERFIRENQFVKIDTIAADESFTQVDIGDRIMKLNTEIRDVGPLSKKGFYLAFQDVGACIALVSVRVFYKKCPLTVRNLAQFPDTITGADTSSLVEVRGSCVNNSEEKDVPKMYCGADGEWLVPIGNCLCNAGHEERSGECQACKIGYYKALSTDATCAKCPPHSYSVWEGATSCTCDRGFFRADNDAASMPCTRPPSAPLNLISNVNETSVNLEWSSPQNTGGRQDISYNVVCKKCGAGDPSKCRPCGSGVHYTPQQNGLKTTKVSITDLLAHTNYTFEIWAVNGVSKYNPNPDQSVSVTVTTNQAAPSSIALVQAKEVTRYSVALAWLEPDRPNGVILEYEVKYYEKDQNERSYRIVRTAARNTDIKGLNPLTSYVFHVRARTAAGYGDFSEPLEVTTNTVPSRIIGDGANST
# Chain of mEph A2 (Q03145 26-535 limits assumed): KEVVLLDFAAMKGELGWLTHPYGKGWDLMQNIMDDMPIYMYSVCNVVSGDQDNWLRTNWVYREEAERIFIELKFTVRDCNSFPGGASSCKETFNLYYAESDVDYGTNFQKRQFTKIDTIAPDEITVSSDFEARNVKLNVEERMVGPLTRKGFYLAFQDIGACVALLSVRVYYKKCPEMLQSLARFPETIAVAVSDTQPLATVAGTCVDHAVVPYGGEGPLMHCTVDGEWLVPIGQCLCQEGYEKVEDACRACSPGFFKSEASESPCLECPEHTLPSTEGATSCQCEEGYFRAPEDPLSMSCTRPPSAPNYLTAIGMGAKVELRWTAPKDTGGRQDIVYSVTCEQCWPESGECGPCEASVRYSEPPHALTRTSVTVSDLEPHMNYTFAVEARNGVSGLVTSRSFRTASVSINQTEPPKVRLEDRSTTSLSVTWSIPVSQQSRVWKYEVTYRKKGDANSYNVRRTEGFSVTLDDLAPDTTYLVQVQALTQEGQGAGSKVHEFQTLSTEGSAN
# T11 sequence (P54764 20-547): as the sequence (P54764 20-547) above
# T8 sequence (P29317 25-534 limits assumed): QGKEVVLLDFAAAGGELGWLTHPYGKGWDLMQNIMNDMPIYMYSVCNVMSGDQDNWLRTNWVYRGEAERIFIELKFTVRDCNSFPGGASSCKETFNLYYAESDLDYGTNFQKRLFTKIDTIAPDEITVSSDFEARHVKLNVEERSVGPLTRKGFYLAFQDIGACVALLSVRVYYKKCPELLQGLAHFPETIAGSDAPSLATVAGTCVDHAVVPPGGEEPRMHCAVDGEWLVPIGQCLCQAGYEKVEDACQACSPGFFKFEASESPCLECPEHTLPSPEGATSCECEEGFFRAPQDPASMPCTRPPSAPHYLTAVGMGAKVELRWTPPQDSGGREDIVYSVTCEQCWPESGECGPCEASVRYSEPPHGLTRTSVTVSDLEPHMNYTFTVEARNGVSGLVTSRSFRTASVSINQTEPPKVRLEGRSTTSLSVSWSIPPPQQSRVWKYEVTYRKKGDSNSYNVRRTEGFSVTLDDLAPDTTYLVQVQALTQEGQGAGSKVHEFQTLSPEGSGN
# T12 sequence (Q03137 20-547 limits assumed): as the sequence (P54764 20-547) above, with P59A, N121S, V124G, R250Q, S251N, T270S, K378R, N406S counted along it
# T9 sequence (Q03137 20-547 limits assumed): as the sequence (P54764 20-547) above, with P59A, N121S, V124G, R250Q, S251N, T270S, K378R, N406S counted along it
ELISA O.D. value [1],binding result [2],binding result [3],ELISA O.D. value [4],ELISA O.D. value [5],binding result [6],binding result [7],binding result [8],Kd [9],koff [9],kon [9],kon [10],binding result [11],binding result [12],binding result [13],Binder
0.535,binds,binds,0.792,0.783,,,,,,,,,,,"human Anti-Eph Monoclonal Antibody GEA44 (antibody, V domains shown, also called mAb GEA44; parental mAb GEA44) VH: QVQLLQSGAEVKKPGASVKVPCKASGYTFTSYAMSWVRQAPGQGLEWMGWINTNTGNPTYAQGFTGRFVFSLDTSVSTAYLQISSLKAEDTAVYYCARVRTTVYGDGMDVWGQGTLVTVSS VL: EIVLTQSPATLSVSPGERATLSCRASQSVSSNLAWYQQKPGQAPRLLIYGASTRATGIPDRFSASGSGTDFTLTISRVEPEDFAVYYCQQYGSSWTFGQGTKVEIK"
,,,,,binds,binds,binds,1.2 nM,0.000353 s⁻¹,295000 M⁻¹ s⁻¹,793000 M⁻¹ s⁻¹,binds,binds,binds,"6B7 IgG1 (affinity optimized combinatorial variant of mAb GEA44 in human IgG1 format) (antibody, V domains shown) VH: QVQLLQSGAEVKKPGASVKVPCKASGYTFTSRAMSWVRQAPGQGLEWMGWINTNTGNPTYAQGFTGRFVFSLDTSVSTAYLQISSLKAEDTAVYYCARVRFTVYGDGMDVWGQGTLVTVSS VL: EIVLTQSPATLSVSPGERATLSCRASQSVSSNPAWYQQKPGQAPRLLIYGASTRATGIPDRFSASGSGTDFTLTISRVEPEDFAVYYCQQYGPSWTFGQGTKVEIK"
